Patent publication US20030144191

Columns and labels:
[1] = molecular target: Histon
[2] = molecular target: MBP

B1: TRP-PLIK2-GST fusion protein (TRP-PLIK2 kinase domain fused to GST) (protein)
chain: PMTMSSPLSQAKIMQTGGGYVNWAFSEGDETGVFSIKKKWQTCLPSTCDSDSSRSEQHQKQAQDSSLSDNSTRSAQSSECSEVGPWLQPNTSFWINPLRRYRPFARSHSFRFHKEEKLMKICKIKNLSGSSEIGQGAWVKAKMLTKDRRLSKKKKNTQGLQVPIITVNACSQSDQLNPEPGENSISEEEYSKNWFTVSKFSHTGVEPYIHQKMKTKEIGQCAIQISDYLKQSQEDLSKNSLWNSRSTNLNRNSLLKSSIGVDKISASLKSPQEPHHHYSAIERNNLMRLSQTIPFTPVQLFAGEEITVYRLEESSPLNLDKSMSSWSQRGRAAMIQVLSREEMDGGLRKAMRVVSTWSEDDILKPGQVFIVKSFLPEVVRTWHKIFQESTVLHLCLREIQQQRAAQKLIYTFNQVKPQTIPYTPRFLEVFLIYCHSANQWLTIEKYMTGEFRKYNNNNGDEITPTNTLEELMLAFSHWTYEYTRGELLVLDLQGVGENLTDPSVIKPEVKQSRGMVFGPANLGEDAIRNFIAKHHCNSCCRKLKLPDLKRNDYSPERINSTFGLEIKIESAEEPPARETGRNSPEDDMQL
With B1 the “32P incorporation (kinase assay, SDS-PAGE, autoradiography)” value [1] was “MBP was determined to be a preferred substrate over Histon”, the “32P incorporation (kinase assay, SDS-PAGE, autoradiography)” value [2] was “MBP was determined to be a preferred substrate over Histon” and the “incorporated 32P in the substrate (kinase assay, SDS-PAGE, autoradiography)” value [2] was “predicted TRP-PLIK2 kinase domain was determined to have kinase activity as demonstrated by the phosphorylated MBP protein”.
